In patent US5607849:
Read-outs that look alike come from different tables or passages of the source.

What was measured:
[1] = molecular target: dimethylated casein
[2] = molecular target: dimethylated casein; remark: listed apart in the source
[3] = molecular target: dimethylated casein; remark: listed apart in the source

Substance: Alaska pollack (Theragra chalcogramma) liver-derived transglutaminase, natural enzyme purified from liver (S-Sepharose fraction)
- relative activity (fluorescence intensity due to bonding of monodansylcadaverine with dimethylated casein) (units/mg protein) [1]: 591

Substance: Pagrus major liver-derived transglutaminase, natural enzyme purified from liver (heparin fraction)
- relative activity (fluorescence intensity due to bonding of monodansylcadaverine with dimethylated casein) (units/mg protein) [2]: 807

Substance: Pagrus major transglutaminase, recombinant (expressed from the cDNA of pSLTG5 by plasmids pIL6TG1 and pTTG2-22 in E. coli HB101 and pYSTG1 in Saccharomyces cerevisiae INVSC2) (enzyme)
- Relative fluorescence intensity (bonding of monodansyl cadaverine with dimethylated casein) (relative fluorescence intensity) [3]: 910
